Test results: patent CN107042090A

Tests used:
[1] = target: Myc-GST融合蛋白 (Myc标签与谷胱甘肽融合的蛋白); experiment: ELISA, Myc-GST coated at 5 μg/mL, HRP anti-His secondary antibody; heat test at 70℃
[2] = target: Myc-GST融合蛋白 (Myc标签与谷胱甘肽融合的蛋白); experiment: ELISA, Myc-GST coated at 5 μg/mL, HRP anti-His secondary antibody; heat test at 80℃
[3] = target: Myc-GST融合蛋白 (Myc标签与谷胱甘肽融合的蛋白); experiment: ELISA, Myc-GST coated at 5 μg/mL, HRP anti-His secondary antibody; heat test at 90℃

- OD450 [1]: 1.5 OD450
- OD450 [2]: 1.2 OD450
- OD450 [3]: 1.1 OD450
B1: 抗c-Myc标签单域重链抗体 (anti-c-Myc tag single-domain heavy-chain antibody) (VHH, not shown: small tags and cut ends)
VHH: QLQLVESGGGEVQAGGSLKLSCAASGSNVQISAMGWYRQVPGKQREFVASETNGGRIDYADFVEGRFTISRDRAKNTVYLQMTSLRPEDTAVYYCNAAPGGWYADLREEYWGKGTLVTVSS
